# Laboratory results taken from the supplement of paper PMC10567573.
# B1: CDC25A (parent)
# chain: KKFRTKSRTWAGEKSKREMYSRLK
# Variants of: B1
# Test: protein stability index of a GFP-peptide fusion (GPS, HEK-293T) (PSI 1-6); higher = more stable
# Settings: c terminus: a fixed tail appended
# 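Note: lentivirally expressed fusions sorted by FACS into six bins by GFP to DsRed ratio, PSI derived from sequencing read proportions per bin multiplied by bin number.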
row,Variant,protein stability index
1,KKFFTKSRTWAGEKSKREMYSRLK,2.71
2,KKFETKSRTWAGEKSKREMYSRLK,3.76
3,KKFNTKSRTWAGEKSKREMYSRLK,3.2
4,KKFQTKSRTWAGEKSKREMYSRLK,3.86
5,KKFGTKSRTWAGEKSKREMYSRLK,2.5
6,KKFVTKSRTWAGEKSKREMYSRLK,3.79
7,KKFDTKSRTWAGEKSKREMYSRLK,3.04
8,KKFMTKSRTWAGEKSKREMYSRLK,3.46
9,KKFHTKSRTWAGEKSKREMYSRLK,3.6
10,KKFSTKSRTWAGEKSKREMYSRLK,2.42
11,KKFLTKSRTWAGEKSKREMYSRLK,2.47
12,KKFKTKSRTWAGEKSKREMYSRLK,3.18
13,KKFYTKSRTWAGEKSKREMYSRLK,3.63
14,KKFATKSRTWAGEKSKREMYSRLK,2.6
15,KKFTTKSRTWAGEKSKREMYSRLK,3.37
16,KKFWTKSRTWAGEKSKREMYSRLK,2.71
17,KKFCTKSRTWAGEKSKREMYSRLK,3.02
18,KKFITKSRTWAGEKSKREMYSRLK,2.3
19,KKFPTKSRTWAGEKSKREMYSRLK,3.09
20,KKFRTKSRTDAGEKSKREMYSRLK,3.9
21,KKFRTKSRTRAGEKSKREMYSRLK,3.41
22,KKFRTKSRTIAGEKSKREMYSRLK,2.97
23,KKFRTKSRTAAGEKSKREMYSRLK,3.89
24,KKFRTKSRTCAGEKSKREMYSRLK,4.02

row,Variant,protein stability index
1,KKFRTKSRTPAGEKSKREMYSRLK,3.55
2,KKFRTKSRTNAGEKSKREMYSRLK,3.6
3,KKFRTKSRTQAGEKSKREMYSRLK,4.03
4,KKFRTKSRTSAGEKSKREMYSRLK,2.79
5,KKFRTKSRTGAGEKSKREMYSRLK,3.92
6,KKFRTKSRTMAGEKSKREMYSRLK,3.66
7,KKFRTKSRTHAGEKSKREMYSRLK,3.76
8,KKFRTKSRTYAGEKSKREMYSRLK,3.14
9,KKFRTKSRTTAGEKSKREMYSRLK,3.56
10,KKFRTKSRTFAGEKSKREMYSRLK,3.47
11,KKFRTKSRTVAGEKSKREMYSRLK,3.9
12,KKFRTKSRTLAGEKSKREMYSRLK,3.53
13,KKFRTKSRTWAGQKSKREMYSRLK,3.34
14,KKFRTKSRTWAGLKSKREMYSRLK,4.12
15,KKFRTKSRTWAGGKSKREMYSRLK,3.29
16,KKFRTKSRTWAGHKSKREMYSRLK,3.1
17,KKFRTKSRTWAGNKSKREMYSRLK,2.79
18,KKFRTKSRTWAGRKSKREMYSRLK,3.63
19,KKFRTKSRTWAGDKSKREMYSRLK,3.61
20,KKFRTKSRTWAGPKSKREMYSRLK,3.27
21,KKFRTKSRTWAGYKSKREMYSRLK,3.25
22,KKFRTKSRTWAGFKSKREMYSRLK,2.19
23,KKFRTKSRTWAGSKSKREMYSRLK,2.97
24,KKFRTKSRTWAGIKSKREMYSRLK,3.07

row,Variant,protein stability index
1,KKFRTKSRTWAGTKSKREMYSRLK,3.43
2,KKFRTKSRTWAGWKSKREMYSRLK,3.5
3,KKFRTKSRTWAGKKSKREMYSRLK,3.49
4,KKFREKSRTWAGEKSKREMYSRLK,3.37
5,KKFRNKSRTWAGEKSKREMYSRLK,3.56
6,KKFRRKSRTWAGEKSKREMYSRLK,3.06
7,KKFRVKSRTWAGEKSKREMYSRLK,3.85
8,KKFRKKSRTWAGEKSKREMYSRLK,3.12
9,KKFRQKSRTWAGEKSKREMYSRLK,3.23
10,KKFRCKSRTWAGEKSKREMYSRLK,2.87
11,KKFRFKSRTWAGEKSKREMYSRLK,3.25
12,KKFRGKSRTWAGEKSKREMYSRLK,3.33
13,KKFRSKSRTWAGEKSKREMYSRLK,3.71
14,KKFRWKSRTWAGEKSKREMYSRLK,3.02
15,KKFRPKSRTWAGEKSKREMYSRLK,2.39
16,KKFRMKSRTWAGEKSKREMYSRLK,2.62
17,KKFRIKSRTWAGEKSKREMYSRLK,2.5
18,KKFRHKSRTWAGEKSKREMYSRLK,2.81
19,KKFRAKSRTWAGEKSKREMYSRLK,2.15
20,KKFRYKSRTWAGEKSKREMYSRLK,3.24
21,KKPRTKSRTWAGEKSKREMYSRLK,2.85
22,KKTRTKSRTWAGEKSKREMYSRLK,3.59
23,KKSRTKSRTWAGEKSKREMYSRLK,3.48
24,KKWRTKSRTWAGEKSKREMYSRLK,3.48

row,Variant,protein stability index
1,KKRRTKSRTWAGEKSKREMYSRLK,3.51
2,KKYRTKSRTWAGEKSKREMYSRLK,3
3,KKFRTKSQTWAGEKSKREMYSRLK,3.37
4,KKFRTKSKTWAGEKSKREMYSRLK,3.31
5,KKFRTKSNTWAGEKSKREMYSRLK,3.38
6,KKFRTKSTTWAGEKSKREMYSRLK,2.95
7,KKFRTKSATWAGEKSKREMYSRLK,3.48
8,KKFRTKSMTWAGEKSKREMYSRLK,2.25
9,KKFRTKSHTWAGEKSKREMYSRLK,2.84
10,KKFRTKSLTWAGEKSKREMYSRLK,3.86
11,KKFRTKSWTWAGEKSKREMYSRLK,4.2
12,KKFRTKSFTWAGEKSKREMYSRLK,2.88
13,KKFRTKSSTWAGEKSKREMYSRLK,2.7
14,KKFRTKSPTWAGEKSKREMYSRLK,3.21
15,KKFRTKSVTWAGEKSKREMYSRLK,3.32
16,KKFRTKSDTWAGEKSKREMYSRLK,3.57
17,KKFRTKSYTWAGEKSKREMYSRLK,4.25
18,KKFRTKSETWAGEKSKREMYSRLK,4.16
19,KKFRTKSITWAGEKSKREMYSRLK,3.39
20,KKFRTLSRTWAGEKSKREMYSRLK,2.36
21,KKFRTYSRTWAGEKSKREMYSRLK,2.92
22,KKFRTGSRTWAGEKSKREMYSRLK,3.23
23,KKFRTISRTWAGEKSKREMYSRLK,2.01
24,KKFRTVSRTWAGEKSKREMYSRLK,2.42

row,Variant,protein stability index
1,KKFRTDSRTWAGEKSKREMYSRLK,3.57
2,KKFRTMSRTWAGEKSKREMYSRLK,2.91
3,KKFRTCSRTWAGEKSKREMYSRLK,2.71
4,KKFRTNSRTWAGEKSKREMYSRLK,2.92
5,KKFRTSSRTWAGEKSKREMYSRLK,2.32
6,KKFRTPSRTWAGEKSKREMYSRLK,2.93
7,KKFRTQSRTWAGEKSKREMYSRLK,2.58
8,KKFRTTSRTWAGEKSKREMYSRLK,2.81
9,KKFRTFSRTWAGEKSKREMYSRLK,2.37
10,KKFRTASRTWAGEKSKREMYSRLK,1.88
11,KKFRTHSRTWAGEKSKREMYSRLK,3.44
12,KKFRTKSRWWAGEKSKREMYSRLK,2.79
13,KKFRTKSRCWAGEKSKREMYSRLK,3.12
14,KKFRTKSRNWAGEKSKREMYSRLK,3.55
15,KKFRTKSRFWAGEKSKREMYSRLK,3.17
16,KKFRTKSRHWAGEKSKREMYSRLK,2.29
17,KKFRTKSRLWAGEKSKREMYSRLK,2.74
18,KKFRTKSRKWAGEKSKREMYSRLK,3.48
19,KKFRTKSRYWAGEKSKREMYSRLK,3
20,KKFRTKSRQWAGEKSKREMYSRLK,2.67
21,KKFRTKSRRWAGEKSKREMYSRLK,2.29
22,KKFRTKSRSWAGEKSKREMYSRLK,3.31
23,KKFRTKSRPWAGEKSKREMYSRLK,3.12
24,KKFRTKSRAWAGEKSKREMYSRLK,2.79

row,Variant,protein stability index
1,KKFRTKSRDWAGEKSKREMYSRLK,3.54
2,KKFRTKSRVWAGEKSKREMYSRLK,2.55
3,KKFRTKSRTWAPEKSKREMYSRLK,3.93
4,KKFRTKSRTWAAEKSKREMYSRLK,3.21
5,KKFRTKSRTWALEKSKREMYSRLK,2.11
6,KKFRTKSRTWACEKSKREMYSRLK,2.61
7,KKFRTKSRTWAFEKSKREMYSRLK,2.68
8,KKFRTKSRTWASEKSKREMYSRLK,2.64
9,KKFRTKSRTWAEEKSKREMYSRLK,2.82
10,KKFRTKSRTWAQEKSKREMYSRLK,2.86
11,KKFRTKSRTWAKEKSKREMYSRLK,2.42
12,KKFRTKSRTWATEKSKREMYSRLK,2.6
13,KKFRTKSRTWAVEKSKREMYSRLK,2.64
14,KKFRTKSRTWAYEKSKREMYSRLK,2.61
15,KKFRTKSRTWAIEKSKREMYSRLK,2.43
16,KKFRTKSRTWAMEKSKREMYSRLK,3.44
17,KKFRTKSRTWAWEKSKREMYSRLK,2.5
18,KKFRTKSRTWANEKSKREMYSRLK,2.26
19,KKFRTKSRTWAGESSKREMYSRLK,2.44
20,KKFRTKSRTWAGENSKREMYSRLK,4.05
21,KKFRTKSRTWAGETSKREMYSRLK,3.1
22,KKFRTKSRTWAGELSKREMYSRLK,2.51
23,KKFRTKSRTWAGEISKREMYSRLK,2.71
24,KKFRTKSRTWAGEFSKREMYSRLK,2.44

row,Variant,protein stability index
1,KKFRTKSRTWAGEVSKREMYSRLK,2.41
2,KKFRTKSRTWAGEPSKREMYSRLK,3.36
3,KKFRTKSRTWAGEQSKREMYSRLK,3.09
4,KKFRTKSRTWAGEMSKREMYSRLK,3.07
5,KKFRTKSRTWAGEGSKREMYSRLK,4.36
6,KKFRTKSRTWAGEHSKREMYSRLK,2.82
7,KKFRTKSRTWAGECSKREMYSRLK,2.54
8,KKFRTKSRTWAGEASKREMYSRLK,2.82
9,KKFRTKSRTWAGERSKREMYSRLK,2.61
10,KKFRTKIRTWAGEKSKREMYSRLK,2.9
11,KKFRTKQRTWAGEKSKREMYSRLK,2.39
12,KKFRTKMRTWAGEKSKREMYSRLK,2.42
13,KKFRTKVRTWAGEKSKREMYSRLK,2.01
14,KKFRTKRRTWAGEKSKREMYSRLK,3.57
15,KKFRTKERTWAGEKSKREMYSRLK,2.92
16,KKFRTKNRTWAGEKSKREMYSRLK,3.17
17,KKFRTKCRTWAGEKSKREMYSRLK,2.39
18,KKFRTKARTWAGEKSKREMYSRLK,3.3
19,KKFRTKWRTWAGEKSKREMYSRLK,3.06
20,KKFRTKHRTWAGEKSKREMYSRLK,3.51
21,KKFRTKFRTWAGEKSKREMYSRLK,2.4
22,KKFRTKPRTWAGEKSKREMYSRLK,3.13
23,KKFRTKDRTWAGEKSKREMYSRLK,3.24
24,KKFRTKGRTWAGEKSKREMYSRLK,2.78

row,Variant,protein stability index
1,KKFRTKKRTWAGEKSKREMYSRLK,3.11
2,KKFRTKSRTWGGEKSKREMYSRLK,3.2
3,KKFRTKSRTWPGEKSKREMYSRLK,3.98
4,KKFRTKSRTWSGEKSKREMYSRLK,4.42
5,KKFRTKSRTWNGEKSKREMYSRLK,2.91
6,KKFRTKSRTWEGEKSKREMYSRLK,2.81
7,KKFRTKSRTWVGEKSKREMYSRLK,2.74
8,KKFRTKSRTWDGEKSKREMYSRLK,2.92
9,KKFRTKSRTWHGEKSKREMYSRLK,3.01
10,KKFRTKSRTWFGEKSKREMYSRLK,2.62
11,KKFRTKSRTWRGEKSKREMYSRLK,2.25
12,KKFRTKSRTWCGEKSKREMYSRLK,2.73
13,KKFRTKSRTWTGEKSKREMYSRLK,3.22
14,KKFRTKSRTWQGEKSKREMYSRLK,3.28
15,KKFRTKSRTWLGEKSKREMYSRLK,2.5
16,KKFRTKSRTWYGEKSKREMYSRLK,2.82
17,KKFRTKSRTWWGEKSKREMYSRLK,2.61
18,KKFRTKSRTWMGEKSKREMYSRLK,2.14
19,KKFRTKSRTWIGEKSKREMYSRLK,2.77
20,KKFRTKSRTWKGEKSKREMYSRLK,2.7
